Data published in article PMC12243196, “Division of the large and multifunctional glycoside hydrolase family 2: high functional specificity and biochemical assays in the uncharacterized subfamilies” (Biotechnology for Biofuels and Bioproducts, 2025).
Where two headings read alike, the source gives them in different places.

What was measured:
[1] = target: T1, AmGH2_9 (Akkermansia muciniphila, UniProt B2UM41); experiment: activity screening, absorbance at […] nm; assay type: biochemical
T1 construct: gene Amuc_1667
T1 sequence (B2UM41 entry or part of it): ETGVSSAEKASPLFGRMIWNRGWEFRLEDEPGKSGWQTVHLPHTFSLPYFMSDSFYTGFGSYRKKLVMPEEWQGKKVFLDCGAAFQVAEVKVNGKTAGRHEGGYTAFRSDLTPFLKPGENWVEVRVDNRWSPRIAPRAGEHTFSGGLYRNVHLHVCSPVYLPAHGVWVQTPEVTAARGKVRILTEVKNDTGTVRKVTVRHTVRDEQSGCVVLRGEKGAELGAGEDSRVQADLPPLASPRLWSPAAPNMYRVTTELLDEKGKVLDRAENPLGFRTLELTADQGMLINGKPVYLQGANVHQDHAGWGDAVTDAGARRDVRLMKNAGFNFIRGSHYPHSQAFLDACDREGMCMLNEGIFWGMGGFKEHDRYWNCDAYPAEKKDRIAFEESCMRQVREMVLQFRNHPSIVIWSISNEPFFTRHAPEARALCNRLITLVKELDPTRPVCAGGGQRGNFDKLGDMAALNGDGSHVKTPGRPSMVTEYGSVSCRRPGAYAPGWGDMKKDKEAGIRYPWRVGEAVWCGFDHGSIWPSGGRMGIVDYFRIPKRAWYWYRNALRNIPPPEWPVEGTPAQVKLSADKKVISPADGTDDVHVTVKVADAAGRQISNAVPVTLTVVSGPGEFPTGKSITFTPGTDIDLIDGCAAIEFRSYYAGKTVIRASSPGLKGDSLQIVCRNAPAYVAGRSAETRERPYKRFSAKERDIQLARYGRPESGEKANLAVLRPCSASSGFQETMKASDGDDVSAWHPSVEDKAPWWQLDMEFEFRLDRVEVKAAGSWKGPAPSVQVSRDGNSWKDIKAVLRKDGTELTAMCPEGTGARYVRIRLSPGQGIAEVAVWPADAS

[2] = tested on: T2, BfGH2_9
T2 construct: gene BF638R_1918
T2 sequence (E1WVB9 30-864 limits assumed): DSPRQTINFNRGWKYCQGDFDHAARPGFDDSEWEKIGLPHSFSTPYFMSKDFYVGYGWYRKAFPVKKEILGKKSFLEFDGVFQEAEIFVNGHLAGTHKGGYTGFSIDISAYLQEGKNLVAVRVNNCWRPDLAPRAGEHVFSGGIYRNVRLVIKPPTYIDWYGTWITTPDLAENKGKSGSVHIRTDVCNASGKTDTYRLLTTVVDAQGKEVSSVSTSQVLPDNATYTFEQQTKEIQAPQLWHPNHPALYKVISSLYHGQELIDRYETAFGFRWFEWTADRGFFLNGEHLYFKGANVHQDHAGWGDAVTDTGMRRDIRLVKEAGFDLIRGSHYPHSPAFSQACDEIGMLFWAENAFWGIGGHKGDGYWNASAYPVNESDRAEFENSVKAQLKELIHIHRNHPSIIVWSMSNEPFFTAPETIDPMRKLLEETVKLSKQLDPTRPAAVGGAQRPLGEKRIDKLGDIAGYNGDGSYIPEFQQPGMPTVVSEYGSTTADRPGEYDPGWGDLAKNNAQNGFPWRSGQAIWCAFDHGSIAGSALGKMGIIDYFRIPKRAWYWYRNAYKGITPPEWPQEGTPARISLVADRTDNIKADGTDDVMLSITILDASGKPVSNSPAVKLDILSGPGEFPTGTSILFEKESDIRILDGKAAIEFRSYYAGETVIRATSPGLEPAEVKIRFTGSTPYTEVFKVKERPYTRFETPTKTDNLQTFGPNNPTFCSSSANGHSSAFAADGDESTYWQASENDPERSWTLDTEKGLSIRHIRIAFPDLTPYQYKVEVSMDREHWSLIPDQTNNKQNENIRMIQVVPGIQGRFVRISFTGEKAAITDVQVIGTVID

[3] = substrate: O=[N+]([O-])c1ccc(O[C@@H]2O[C@H](CO)[C@H](O)[C@H](O)[C@H]2O)cc1; experiment: purified protein

O=[N+]([O-])c1ccccc1O[C@@H]1O[C@H](CO)[C@H](O)[C@H](O)[C@H]1O [oNP-β-D-Galp] was tested, and the “activity screening, absorbance at 405 nm” value [1] was “All the enzymes also displayed activity on oNP-β-D-Galp (data not shown)” and the “activity screening, absorbance at 405 nm” value [2] was “All the enzymes also displayed activity on oNP-β-D-Galp (data not shown)”.

B1: (Zobellia galactanivorans) (protein)
chain: QTEKVDLPGEERMLLSGNWKFHAIYGEGSNYIDISETLEDIVIDNTDKDRVSVKGDWKTRSEGERGSGFLGTDYLQRDFKSGESDQNYVRYRPELPESGFYEAFVRFPFASHLTAEVNVNHAQGITAAYFNQRNRCDQWLSLGVFSFDKTLDSYVEVTAITASTVVADAVMFRPVSKEKMEEADIEKSSVFQVDFDDSNWKDLRVPGHWGMLNAYSNYTGKGWYRKTFELPKNWKSVSNERIRLKFDAVYHIARVFLNGELVGLHQGGFTPFEFDITDKLNYNGQNVLAVEADNNALVGATWNWGGIIREVHLIKNNDVRISYQYIHADPDLKKGSANLKLKVRIKNSSTRQRTVLLAAHIEEASSPVDLTYKVKVPANSTQEIQLATTLPATDVKLWHFDTPNLYHLTTTISENGQVLDTQKDRFGIRKIELTDSQLILNGEPVRLSGFNRVSDHRYWGSSEPQYLIDKDVDLMKNAGANFMRIMHGTQNKKLMDRCDEKGILIFEEVNVRELTNPEFTPPHYPLAKQWLKEMIERDVNHPSIIGWSVGNELKDHFDYAKETIDYVKKELDPYRLVTCVSNSGWRDSATPEKDPNTLVDIIMHNLYPFQGTPDKVFKTLRAKWPDKPIFISEYGIKPMATTSLDGDIPELSEWNDHLRGKNTYVIGASLWTFNDYRSGYAATSPEENRVWGLVNTWRQKRKLYHRIQKENSPLADLKIDGIDLKNGGAKVRITPKPVNGYPVYSLKGYTLEFTMYDKQGEILFSKTHSLPHIVPGGKPTEVAIDWQRYMTGMAQIHAAVISPNGYIRHQTSISLELPEKTSILAIEKGHGTVRVHYRPVFGADTYYVAYADGKGLERKSDTSTTHSIEIKDLDPEEEYAFSVIAQNSKGKSVPSGTRTTKANADVLPPMIWDAFLSDGKLVVGYSGAPDDVEYIVKYGLRDSYFPYKNSTRTKGMTVIDFEGDDPHFVSIKKKTKTGESDWSKPIHVYTIRNKERYRN
B1 was tested, and the Km [3] was 67 ± 8.3 µM, the kcat [3] was 0.0133 s⁻¹ and the kcat/Km [3] was 204 M⁻¹ s⁻¹.

B2: (Saccharophagus degradans 2-40) (protein)
chain: MVVNTDITQWSLTKTNANGAQTPADIIPLQQWLAVPVPGTVAQAVGDAGPQEDLEQFDWWYTAQFPLPKTGKRTYLQCDGLATLSEVWVNDQQVLYSQSMFENHKLDITDYLQADNTLAIVFKALAPHLAERRARPQWKTNLVDNQNLRWFRTSLLGRMPGWTPPVKAIGPWRDISIVSVAKFDLVECTVFSEVDEALNGKVHINLELDFIDAKLAADPQIQFLLDGKIYPITAKPIKGGGAFIDTEIAIEQPQLWWPHTHGEPYLHAYKITAIIDGEVTTLTEGKLGFKRVTAANQTNQLALEVNNNKIFCRGACWATPNITSLNASKQEYRHLLKLLVDAGANMVRIGGTMVYEHDDFYALCDELGILVWQDFMFANMDYPFADEDFSKLVAKEVRQQITRLKQTASIAVFCGNSEMQQQAAMMGMEQTQWANALFDTFITQKLEEQQLTLPYFTSSPCEGGLPFHTDAGLTHYYGVGAYKLMPDHFTVREVGFTSECLGFSHIPVTASLKQAFESPYPATHTPSWKAGIPRDNSAGWDFEDIRNFYLEKIFGVVADTLRYSDPETYFKLATIATAEMVSSVYSIWRASISNCNGALAWFYQDIVAGAGWGIVDSFARPKAAYYFLKRVWQPQQVLLINNSLNGYTLEVQNETAHTLQAQLNIVLVGLSDNIVAEHTQEITLAANSVGTHKLDTVFGRFMDATHAYKFGRQTIYAVVAELRNESGELISQAVSFPGCRRINTGAGEITGSITSDSDNESVVTLTPSVFVEYACLESKTTQFSDNYTCMLPGKTYSFKACEQIKSVHVSTLNLQKEFRVT
In the case of B2, the Km ([3]; 40.0 °C) is reported as 64 ± 12.6 µM, the kcat ([3]; 40.0 °C) is reported as 0.02 s⁻¹ and the kcat/Km ([3]; 40.0 °C) is reported as 306 M⁻¹ s⁻¹.

B3: (Ruminiclostridium cellobioparum subsp. termitidis CT1112) (protein)
chain: MNNRKQICLNGLWDFCPGNGTLDRIPRKWDKTQIKVPSPWNINTFAGPEKLTCGEEEIFLRGGEFNLYPEYPKAWENAQSGWYKTEMFIDEEWRGKVITLKFNAVLFYSEFYINGKLISTDADGFLPHEFPVQDHVKYGGSNTLVVGVKKLDAFRYKNEAGKNRIEYPTGSFWGKTMGGIWQDVYLNVYPHDHITDIFVRTDVNSNILRVDADLAADRGEDFTVGMVLREWSGDRSFKLACGLPVNGNSVEFIFDYSGIKDEIRQWWPDSPELYYIDVILHSGNEIVDVKTARFGFKSFEVRGKQFYLNGTPINLRNDSWHYMGFAYQNEEYARLWYKMARDANVNCIRLHAQVYPEFFLDMADEMGMMIVDETSIWASHCEFHYSMEFVENGKKHIKRMIERDRNHPSIIIWSVENECIMAYRVSADDGVKDENELNERLFLLAEYAGSLDPTRPVSGDGSQDMGGRLDVYSLHYPGKKGPENVNKPVTIGEMGSLYYATPDCVCNQYGEKTYLSFDGRLEAIGRELFENLKHERKWAAQVCVFNLVWYGLKPLPFKERIINYPDLSLPGVKPTRTGPYISTLNAAYDDSLPEYIPNTVFEWVRQAYLPERFFFEEGRSRYYNGEAGAKKISVFNDSFEEKEYILEWQMEQKGEILGSGNKSVLVNPAGYEELDIEFDLPAADSIERLSLRILMKFRDNIVFEDVCSIKVYNKNHIFSFMGGFGKVGILGGSRLDANEFFEKSGIETVDGLTQGIDIYLLEECTEEAAAGLTWACCSVLDLLPEKHGFKSWLSHGSAENAFLNVDDRTLMENLEEEDLSNWGNGYLCNNTFQDNLCVSAFNLFCTGKGIPLILDVKNGKARQLVSTIPLLKWAAEEPAALVLLSNLIAYAAQTGKTEAHECVLVSKKDSDMHRSFENMGIDFTLAEVKNRDQIRSLREVKLLVADGSCRLDYLDEIMPYNAEQILLCNFDEATLPDSLKGYIEVVEKPLYQLIKAGKDNALTDGIHAGDLYGLEAGQETVICKRPFLIKDDRKVKGLLKNADLNWRMWNFQGEDRKTVSILRSEQETKTPLYGLAETHINTVKVILGQIDMSYANRKLERLASRFFLQYGTYSKL
For B3, the Km ([3]; 40.0 °C) was 40 ± 1.2 µM, the kcat ([3]; 40.0 °C) was 0.0233 s⁻¹ and the kcat/Km ([3]; 40.0 °C) was 586 M⁻¹ s⁻¹.
